According to publication doi:10.1101/2021.10.05.463282 (2021):

B1: B8-mIgA1 (antibody, V domains shown)
VH: EVQLVQSGAEVKKPGSSVKVSCKASGGTFSNYGISWVRQAPGQGLEWMGRILPTFGTANSAQKFQGRVTITADESTGTAYMELRSLRSEDTAVYYCAKEGLAFLGYGMDVWGQGTTVTVSS
VL: EIVLTQSPGTLSLSPGERATLSCRASQSVSSYLAWYQQKPGQAPRLLIYDASNRATGIPARFIGSGSGTDFTLTISSLEPEDFAVYFCQQRSNWPLTFGGGTKVEIK
B2: B8-dIgA1 (antibody, V domains shown)
VH: EVQLVQSGAEVKKPGSSVKVSCKASGGTFSNYGISWVRQAPGQGLEWMGRILPTFGTANSAQKFQGRVTITADESTGTAYMELRSLRSEDTAVYYCAKEGLAFLGYGMDVWGQGTTVTVSS
VL: EIVLTQSPGTLSLSPGERATLSCRASQSVSSYLAWYQQKPGQAPRLLIYDASNRATGIPARFIGSGSGTDFTLTISSLEPEDFAVYFCQQRSNWPLTFGGGTKVEIK
B3: B8-dIgA2 (antibody, V domains shown)
VH: EVQLVQSGAEVKKPGSSVKVSCKASGGTFSNYGISWVRQAPGQGLEWMGRILPTFGTANSAQKFQGRVTITADESTGTAYMELRSLRSEDTAVYYCAKEGLAFLGYGMDVWGQGTTVTVSS
VL: EIVLTQSPGTLSLSPGERATLSCRASQSVSSYLAWYQQKPGQAPRLLIYDASNRATGIPARFIGSGSGTDFTLTISSLEPEDFAVYFCQQRSNWPLTFGGGTKVEIK
B4: B8-IgG1 (antibody, V domains shown)
VH: EVQLVQSGAEVKKPGSSVKVSCKASGGTFSNYGISWVRQAPGQGLEWMGRILPTFGTANSAQKFQGRVTITADESTGTAYMELRSLRSEDTAVYYCAKEGLAFLGYGMDVWGQGTTVTVSS
VL: EIVLTQSPGTLSLSPGERATLSCRASQSVSSYLAWYQQKPGQAPRLLIYDASNRATGIPARFIGSGSGTDFTLTISSLEPEDFAVYFCQQRSNWPLTFGGGTKVEIK
B5: B8-mIgA2 (antibody, V domains shown)
VH: EVQLVQSGAEVKKPGSSVKVSCKASGGTFSNYGISWVRQAPGQGLEWMGRILPTFGTANSAQKFQGRVTITADESTGTAYMELRSLRSEDTAVYYCAKEGLAFLGYGMDVWGQGTTVTVSS
VL: EIVLTQSPGTLSLSPGERATLSCRASQSVSSYLAWYQQKPGQAPRLLIYDASNRATGIPARFIGSGSGTDFTLTISSLEPEDFAVYFCQQRSNWPLTFGGGTKVEIK
B6: B8 Fab (Fab, V domains shown)
VH: EVQLVQSGAEVKKPGSSVKVSCKASGGTFSNYGISWVRQAPGQGLEWMGRILPTFGTANSAQKFQGRVTITADESTGTAYMELRSLRSEDTAVYYCAKEGLAFLGYGMDVWGQGTTVTVSS
VL: EIVLTQSPGTLSLSPGERATLSCRASQSVSSYLAWYQQKPGQAPRLLIYDASNRATGIPARFIGSGSGTDFTLTISSLEPEDFAVYFCQQRSNWPLTFGGGTKVEIK

The binders below were run against recombinant trimeric spike protein derived from SARS-CoV-2 (Sino Biological) (SARS-CoV-2, ancestral (Wuhan-Hu-1) …, UniProt P0DTC2) (assay: ELISA).
B1: binds.
B2: binds.
B3: binds.
B4: binds.
B5: binds.

The binders below were run against SARS-CoV-2 spike ectodomain trimer (SARS-CoV-2, ancestral (Wuhan-Hu-1) …, UniProt P0DTC2) (assay: cryo-EM structure).
B6: binds.
